In article PMC3160652 (The EMBO Journal, 2011):

Biological target: T1, GST–Ubp3 (UBP3 cloned into pGEX4T, PEN253) (S. cerevisiae, UniProt Q01477 1-912)
T1 sequence (looked up): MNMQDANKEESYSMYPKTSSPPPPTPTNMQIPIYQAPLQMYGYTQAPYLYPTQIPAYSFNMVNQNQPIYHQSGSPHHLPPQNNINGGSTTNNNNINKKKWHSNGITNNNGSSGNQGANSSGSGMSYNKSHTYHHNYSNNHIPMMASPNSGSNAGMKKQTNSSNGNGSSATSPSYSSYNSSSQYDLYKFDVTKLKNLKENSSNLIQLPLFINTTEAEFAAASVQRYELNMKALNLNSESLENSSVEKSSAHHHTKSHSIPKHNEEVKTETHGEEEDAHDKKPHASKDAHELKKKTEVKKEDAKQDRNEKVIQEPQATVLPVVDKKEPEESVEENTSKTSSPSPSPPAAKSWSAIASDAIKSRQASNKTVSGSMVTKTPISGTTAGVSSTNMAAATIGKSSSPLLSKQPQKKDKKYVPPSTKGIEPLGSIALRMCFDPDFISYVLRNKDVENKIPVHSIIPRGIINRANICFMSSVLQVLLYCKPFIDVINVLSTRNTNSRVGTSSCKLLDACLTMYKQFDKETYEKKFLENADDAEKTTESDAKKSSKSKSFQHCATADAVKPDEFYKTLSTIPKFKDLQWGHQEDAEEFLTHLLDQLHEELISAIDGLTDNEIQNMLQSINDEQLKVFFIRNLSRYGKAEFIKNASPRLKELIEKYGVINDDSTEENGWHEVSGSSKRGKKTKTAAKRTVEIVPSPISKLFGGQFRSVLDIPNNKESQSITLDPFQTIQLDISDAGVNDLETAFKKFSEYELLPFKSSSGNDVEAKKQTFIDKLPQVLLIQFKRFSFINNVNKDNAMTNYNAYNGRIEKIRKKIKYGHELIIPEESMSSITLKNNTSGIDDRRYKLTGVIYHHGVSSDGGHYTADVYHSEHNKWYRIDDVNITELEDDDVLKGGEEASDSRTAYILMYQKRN
Assay: pull-down

B1: His-tagged Hog1 (enzyme, S. cerevisiae, UniProt P32485 1-435, looked up)
chain: MTTNEEFIRTQIFGTVFEITNRYNDLNPVGMGAFGLVCSATDTLTSQPVAIKKIMKPFSTAVLAKRTYRELKLLKHLRHENLICLQDIFLSPLEDIYFVTELQGTDLHRLLQTRPLEKQFVQYFLYQILRGLKYVHSAGVIHRDLKPSNILINENCDLKICDFGLARIQDPQMTGYVSTRYYRAPEIMLTWQKYDVEVDIWSAGCIFAEMIEGKPLFPGKDHVHQFSIITDLLGSPPKDVINTICSENTLKFVTSLPHRDPIPFSERFKTVEPDAVDLLEKMLVFDPKKRITAADALAHPYSAPYHDPTDEPVADAKFDWHFNDADLPVDTWRVMMYSEILDFHKIGGSDGQIDISATFDDQVAAATAAAAQAQAQAQAQVQLNMAAHSHNGAGTTGNDHSDIAGGNKVSDHVAANDTITDYGNQAIQYANEFQQ
  binding result: binds
